US20180155451A1 (published 2018)

Molecular target: T1, FcγRIa extracellular domain with C-terminal His tag (human, UniProt P12314 16-292)
T1 construct: extracellular domain; soluble analyte in Biacore; also called FcgRI; CD64
Assay: SPR (Biacore), relative FcγRIa binding, GpH7-A5/GpH7-B3/GpL16-k0 (HeCon Ab) = 100

T1 sequence (P12314 16-292): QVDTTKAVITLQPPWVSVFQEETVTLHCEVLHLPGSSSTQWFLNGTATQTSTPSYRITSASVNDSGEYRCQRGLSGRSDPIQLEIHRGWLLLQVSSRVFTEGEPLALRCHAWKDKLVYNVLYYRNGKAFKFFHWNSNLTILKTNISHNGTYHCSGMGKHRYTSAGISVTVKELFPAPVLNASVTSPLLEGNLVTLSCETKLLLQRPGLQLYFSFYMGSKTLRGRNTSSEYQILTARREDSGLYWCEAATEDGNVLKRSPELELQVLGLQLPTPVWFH

Binder | He/Con_1a
GpH7-A5/GpH7-B3 variant L328_15Y/GpL16-k0 (antibody, human IgG1, kappa, heterodimerized antibody, mutation in one H chain only; also called L328_15Y He Ab) heavy 1: not shown heavy 2: not shown light: DIVMTQSPLSLPVTPGEPASISCQASESLVHSNRNTYLHWYLQKPGQSPQLLIYKVSNRFSGVPDRFSGSGSGTDFTLKISRVEAEDVGVYYCSQNTHVPPTFGQGTKVEIERTVAAPSVFIFPPSDEQLKSGTASVVCLLNNFYPREAKVQWKVDNALQSGNSQESVTEQDSKDSTYSLSSTLTLSKADYEKHKVYACEVTHQGLSSPVTKSFNRGEC | 102 % of control
GpH7-A5/GpH7-B3 variant S239_10E/GpL16-k0 (antibody, human IgG1, kappa, heterodimerized antibody, mutation in one H chain only; also called S239_10E He Ab) heavy 1: not shown heavy 2: not shown light: DIVMTQSPLSLPVTPGEPASISCQASESLVHSNRNTYLHWYLQKPGQSPQLLIYKVSNRFSGVPDRFSGSGSGTDFTLKISRVEAEDVGVYYCSQNTHVPPTFGQGTKVEIERTVAAPSVFIFPPSDEQLKSGTASVVCLLNNFYPREAKVQWKVDNALQSGNSQESVTEQDSKDSTYSLSSTLTLSKADYEKHKVYACEVTHQGLSSPVTKSFNRGEC | 105 % of control
GpH7-A5/GpH7-B3 variant P271_18N/GpL16-k0 (antibody, human IgG1, kappa, heterodimerized antibody, mutation in one H chain only; also called P271_18N He Ab) heavy 1: not shown heavy 2: not shown light: DIVMTQSPLSLPVTPGEPASISCQASESLVHSNRNTYLHWYLQKPGQSPQLLIYKVSNRFSGVPDRFSGSGSGTDFTLKISRVEAEDVGVYYCSQNTHVPPTFGQGTKVEIERTVAAPSVFIFPPSDEQLKSGTASVVCLLNNFYPREAKVQWKVDNALQSGNSQESVTEQDSKDSTYSLSSTLTLSKADYEKHKVYACEVTHQGLSSPVTKSFNRGEC | 103 % of control
GpH7-A5/GpH7-B3 variant S324_10E/GpL16-k0 (antibody, human IgG1, kappa, heterodimerized antibody, mutation in one H chain only; also called S324_10E He Ab) heavy 1: not shown heavy 2: not shown light: DIVMTQSPLSLPVTPGEPASISCQASESLVHSNRNTYLHWYLQKPGQSPQLLIYKVSNRFSGVPDRFSGSGSGTDFTLKISRVEAEDVGVYYCSQNTHVPPTFGQGTKVEIERTVAAPSVFIFPPSDEQLKSGTASVVCLLNNFYPREAKVQWKVDNALQSGNSQESVTEQDSKDSTYSLSSTLTLSKADYEKHKVYACEVTHQGLSSPVTKSFNRGEC | 105 % of control
GpH7-A5/GpH7-B3 variant P271_01G/GpL16-k0 (antibody, human IgG1, kappa, heterodimerized antibody, mutation in one H chain only; also called P271_01G He Ab) heavy 1: not shown heavy 2: not shown light: DIVMTQSPLSLPVTPGEPASISCQASESLVHSNRNTYLHWYLQKPGQSPQLLIYKVSNRFSGVPDRFSGSGSGTDFTLKISRVEAEDVGVYYCSQNTHVPPTFGQGTKVEIERTVAAPSVFIFPPSDEQLKSGTASVVCLLNNFYPREAKVQWKVDNALQSGNSQESVTEQDSKDSTYSLSSTLTLSKADYEKHKVYACEVTHQGLSSPVTKSFNRGEC | 105 % of control
GpH7-A5/GpH7-B3 variant Q295_12R/GpL16-k0 (antibody, human IgG1, kappa, heterodimerized antibody, mutation in one H chain only; also called Q295_12R He Ab) heavy 1: not shown heavy 2: not shown light: DIVMTQSPLSLPVTPGEPASISCQASESLVHSNRNTYLHWYLQKPGQSPQLLIYKVSNRFSGVPDRFSGSGSGTDFTLKISRVEAEDVGVYYCSQNTHVPPTFGQGTKVEIERTVAAPSVFIFPPSDEQLKSGTASVVCLLNNFYPREAKVQWKVDNALQSGNSQESVTEQDSKDSTYSLSSTLTLSKADYEKHKVYACEVTHQGLSSPVTKSFNRGEC | 100 % of control
GpH7-A5/GpH7-B3 variant S267_06M/GpL16-k0 (antibody, human IgG1, kappa, heterodimerized antibody, mutation in one H chain only; also called S267_06M He Ab) heavy 1: not shown heavy 2: not shown light: DIVMTQSPLSLPVTPGEPASISCQASESLVHSNRNTYLHWYLQKPGQSPQLLIYKVSNRFSGVPDRFSGSGSGTDFTLKISRVEAEDVGVYYCSQNTHVPPTFGQGTKVEIERTVAAPSVFIFPPSDEQLKSGTASVVCLLNNFYPREAKVQWKVDNALQSGNSQESVTEQDSKDSTYSLSSTLTLSKADYEKHKVYACEVTHQGLSSPVTKSFNRGEC | 106 % of control
GpH7-A5/GpH7-B3 variant S337_18N/GpL16-k0 (antibody, human IgG1, kappa, heterodimerized antibody, mutation in one H chain only; also called S337_18N He Ab) heavy 1: not shown heavy 2: not shown light: DIVMTQSPLSLPVTPGEPASISCQASESLVHSNRNTYLHWYLQKPGQSPQLLIYKVSNRFSGVPDRFSGSGSGTDFTLKISRVEAEDVGVYYCSQNTHVPPTFGQGTKVEIERTVAAPSVFIFPPSDEQLKSGTASVVCLLNNFYPREAKVQWKVDNALQSGNSQESVTEQDSKDSTYSLSSTLTLSKADYEKHKVYACEVTHQGLSSPVTKSFNRGEC | 105 % of control
GpH7-A5/GpH7-B3 variant P271_08L/GpL16-k0 (antibody, human IgG1, kappa, heterodimerized antibody, mutation in one H chain only; also called P271_08L He Ab) heavy 1: not shown heavy 2: not shown light: DIVMTQSPLSLPVTPGEPASISCQASESLVHSNRNTYLHWYLQKPGQSPQLLIYKVSNRFSGVPDRFSGSGSGTDFTLKISRVEAEDVGVYYCSQNTHVPPTFGQGTKVEIERTVAAPSVFIFPPSDEQLKSGTASVVCLLNNFYPREAKVQWKVDNALQSGNSQESVTEQDSKDSTYSLSSTLTLSKADYEKHKVYACEVTHQGLSSPVTKSFNRGEC | 102 % of control
GpH7-A5/GpH7-B3 variant S267_18N/GpL16-k0 (antibody, human IgG1, kappa, heterodimerized antibody, mutation in one H chain only; also called S267_18N He Ab) heavy 1: not shown heavy 2: not shown light: DIVMTQSPLSLPVTPGEPASISCQASESLVHSNRNTYLHWYLQKPGQSPQLLIYKVSNRFSGVPDRFSGSGSGTDFTLKISRVEAEDVGVYYCSQNTHVPPTFGQGTKVEIERTVAAPSVFIFPPSDEQLKSGTASVVCLLNNFYPREAKVQWKVDNALQSGNSQESVTEQDSKDSTYSLSSTLTLSKADYEKHKVYACEVTHQGLSSPVTKSFNRGEC | 102 % of control
GpH7-A5/GpH7-B3 variant S267_14T/GpL16-k0 (antibody, human IgG1, kappa, heterodimerized antibody, mutation in one H chain only; also called S267_14T He Ab) heavy 1: not shown heavy 2: not shown light: DIVMTQSPLSLPVTPGEPASISCQASESLVHSNRNTYLHWYLQKPGQSPQLLIYKVSNRFSGVPDRFSGSGSGTDFTLKISRVEAEDVGVYYCSQNTHVPPTFGQGTKVEIERTVAAPSVFIFPPSDEQLKSGTASVVCLLNNFYPREAKVQWKVDNALQSGNSQESVTEQDSKDSTYSLSSTLTLSKADYEKHKVYACEVTHQGLSSPVTKSFNRGEC | 102 % of control
